Experimental findings from PMC7840129, “Structural basis for heme-dependent NCoR binding to the transcriptional repressor REV-ERBβ” (Science Advances, 2021) are described below.

The chains are these.
B1: NCoR ID2 peptide (peptide)
peptide: DPASNLGLEDIIRKALMGSFDDK
modifications: not fully specified
notes: source: synthetic peptide, bought: LifeTein
B2: mouse NCoR RID ΔID2 mutant (domain or fragment)
chain: QVPRTHRLITLADHICQIITQDFARNQVPSQASTSTFQTSPSALSSTPVRTKTSSRYSPESQSQTVLHPRPGPRVSPENLVDKSRGSRPGKSPERSHIPSEPYEPISPPQGPAVHEKQDSMLLLSQRGVDPAEQRSDSRSPGSISYLPSFFTKLESTSPMVKSKKQEIFRKLNSSGGGDSDMAAAQPGTEIFNLPAVTTSGAVSSRSHSFADPASNLGTEDTTRKALMGSFDDKVEDHGVVMSHPVGIMPGSASTSVVTSSEARRDE
B3: mouse NCoR receptor interaction domain (residues 1942 to 2208 in the X50 splice variant), wild type (domain or fragment)
chain: B2 chain with T219L, T222I, T223I
B4: human REV-ERBβ ligand-binding domain (residues 381 to 579) (domain or fragment, UniProt Q14995 381-579, looked up)
chain: HLVCPMSKSPYVDPHKSGHEIWEEFSMSFTPAVKEVVEFAKRIPGFRDLSQHDQVNLLKAGTFEVLMVRFASLFDAKERTVTFLSGKKYSVDDLHSMGAGDLLNSMFEFSEKLNALQLSDEEMSLFTAVVLVSADRSGIENVNSVEALQETLIRALRTLIMKNHPNEASIFTKLLLKLPDLRSLNNMHSEELLAFKVHP
notes: cloned into pET46; Used ligand-free (apo) or loaded with heme (a small molecule; 1.05 to 2 molar equivalents); the two states are told apart by the assays; also called REV-ERBβ LBD; LBD; source: E. coli BL21(DE3), purified (IMAC, 3C protease cleavage, size exclusion); 15N-labelled in M9 minimal media for NMR; not shown: 6xHis, N-terminal, cleaved
B5: REV-ERBβ: full-length human REV-ERBβ expressed from pcDNA3.1 vector in HEK293T cells (protein)
chain: B4 chain
modifications: left off: 6xHis, N-terminal, cleaved
notes: full-length human REV-ERBβ expressed from pcDNA3.1 vector in HEK293T cells
B6: NCoR ID1 peptide (peptide)
peptide: RTHRLITLADHICQIITQDFARN
modifications: not fully specified
notes: as for B1

Changes are numbered by the printed parent chain. Where no end group is shown, it is not given here.

The target of test [1] is B4. The test can be described thus: ITC; apo LBD (500 μM, syringe) titrated into ID peptide (50 μM, cell); 25°C; 20 mM Hepes pH 7.4, 50 mM KCl, 0.5 mM EDTA, 5 mM TCEP; A + B ↔ AB model in SEDPHAT. As to conditions: both partners purified. For orientation: In ITC the heat of successive injections is recorded.
Test [2] concerns the target B4. The test can be described thus: ITC; apo LBD (300 μM, syringe; for WT RID 2 × 20 injections of 150 μM) titrated into RID construct (15 μM, cell); 25°C; Hepes assay buffer; WT RID fit to two nonsymmetric sites, microscopic K model; ΔID2 fit to A + B ↔ AB. As to conditions: both partners purified.
Test [3] concerns the target B4. Briefly: ITC; heme-bound LBD (300 μM, syringe) titrated into RID construct (15 μM, cell), 4 molar equivalents; 25°C; Hepes assay buffer; WT RID fit to A + B ↔ AB. To be noted: both partners purified.
Test [4] has as its target B3. The description is as above. As to conditions: both partners purified.
Test [5] has as its target B3. Described as above. To be noted: both partners purified.
Test [6] deals with B3. Briefly: ITC; apo LBD (300 μM, syringe; for WT RID 2 × 20 injections of 150 μM) titrated into RID construct (15 μM, cell); 25°C; Hepes assay buffer; WT RID fit to two nonsymmetric sites, microscopic K model; ΔID2 fit to A + B ↔ AB. To be noted: both partners purified.
The target of test [7] is B1. The test can be described thus: ITC; apo LBD (500 μM, syringe) titrated into ID peptide (50 μM, cell); 25°C; 20 mM Hepes pH 7.4, 50 mM KCl, 0.5 mM EDTA, 5 mM TCEP; A + B ↔ AB model in SEDPHAT. As to conditions: both partners purified.
Test [8] concerns the target B6. Described as above. To be noted: both partners purified.
Test [9] deals with B3. Briefly: ITC; apo LBD (300 μM, syringe; for WT RID 2 × 20 injections of 150 μM) titrated into RID construct (15 μM, cell); 25°C; Hepes assay buffer; WT RID fit to two nonsymmetric sites, microscopic K model; ΔID2 fit to A + B ↔ AB. As to conditions: both partners purified.
Test [10] addresses B2. The test is described as above. As to conditions: both partners purified.
The target in test [11] is B1. Briefly: ITC; heme-bound LBD (500 μM with 1.05 molar equivalents of heme, syringe) titrated into ID peptide (50 μM, cell); 25°C; 20 mM Hepes pH 7.4, 50 mM KCl, 0.5 mM EDTA, 5 mM TCEP; A + B ↔ AB model in SEDPHAT. As to conditions: both partners purified.
Test [12] concerns the target B6. The description is as above. As to conditions: both partners purified.
For test [13], the system named is Bmal1 REV-RE promoter luciferase in HEK293T cells. The test can be described thus: Bmal1-luciferase transcriptional repression assay. In kind it is cell-based, human. To be noted: for fold repression of Bmal1-luciferase: HEK293T, 24 hours, relative to empty vector, n = 3 independent experiments. From the text: The human REV-ERBβ LBD (residues 381 to 579) was previously cloned into the pET46 vector ([18]). The mouse NCoR RID (residues 1942 to 2208 in the X50 splice variant), which has 87% sequence identity to human NCoR RID (100% sequence identity in the ID motifs), was previously cloned into the pET32 vector ([29]). NCoR RID mutants were generated by site-directed mutagenesis: The ID1 CoRNR box motif was mutated from […] to […] (ΔID1 and ΔID1ΔID2), and the ID2 CoRNR box motif was mutated from LEDIIRKAL to TEDTTRKAL (ΔID2 and ΔID1ΔID2), as these mutations were previously reported to disrupt CoRNR box binding ([10], [30]). Heme (Sigma-Aldrich, no. 51280) was prepared either as a 1 mM stock in dimethyl sulfoxide (DMSO) stored at 4°C or 50 mM stock in 0.2 M NaOH (solutions prepared in 0.2 M NaOH were always made fresh immediately before the experiment), where indicated. […] Human embryonic kidney (HEK) 293T cells (American Type Culture Collection, no. CRL-11268) were cultured in Dulbecco’s modified eagle medium (DMEM) supplemented with 10% fetal bovine serum, 2 mM L-glutamine, and 1% penicillin-streptomycin at 37°C and 5% CO2 under standard culture conditions. The pcDNA3.1^+ expression vector containing full-length human REV-ERBβ ([31]) and the pGL3-Bmal1-luciferase construct containing the Bmal1 promoter (−816 to +99 of the mouse Bmal1 promoter region) were used in HEK293T cell transfections. […]
HEK293T cells were plated at 1.5 × 10^3 cells per well in 96-well flat-bottom plates in DMEM 24 hours before transfection. […] Luciferase activity was harvested 24 hours after transfection with Britelite Plus (PerkinElmer) and read using a BioTek Synergy plate reader. Raw luminescence values of REV-ERBβ–transfected wells were normalized to pcDNA3.1 empty vector transfection wells individually for each Bmal1-luciferase construct to determine fold repression by REV-ERBβ for each Bmal1-luciferase construct. […]

Test [14] concerns the target B4. The test can be described thus: ITC; heme-bound LBD (500 μM with 1.05 molar equivalents of heme, syringe) titrated into ID peptide (50 μM, cell); 25°C; 20 mM Hepes pH 7.4, 50 mM KCl, 0.5 mM EDTA, 5 mM TCEP; A + B ↔ AB model in SEDPHAT. As to conditions: both partners purified.

One may read the Kd as a measure of binding affinity in units of concentration. For B1, the Kd in test [1] is 84000 nM.

On to B2, for which, in [2], the Kd amounted to 130 nM.

As to B3, the Kd in test [3] turned out to be 99 nM.

For orientation: stoichiometry N means the number of molecules, sites or subunits per partner or assembly. Consider B4, for which the entries for the “stoichiometry N” value in [4] and in test [6] were ~2 LBD per RID and 2 LBD per RID, respectively. Also, the dH in [5] is 1.7 kcal/mol; with NCoR ID2 peptide [7], -9.7 kcal/mol; with NCoR ID1 peptide [8], -7.7 kcal/mol; in [10] it was -9.4 kcal/mol; with NCoR ID2 peptide [11] it was 3 kcal/mol; with NCoR ID1 peptide [12] it was 1.7 kcal/mol. Besides, in test [9], the “KD site 1” value stood at 12 nM. For the same molecule, the “KD site 2” value in test [9] was 740 nM. Besides, in [9], the “dH site 1” value was -8.3 kcal/mol. For the same molecule, the “dH site 2” value in test [9] was determined as 3.2 kcal/mol.

Regarding B5, the “fold repression of Bmal1-luciferase” value is “approximately ninefold” in test [13] (WT Bmal1 construct) and “approximately threefold” in test [13] (mutant Bmal1 constructs (one or both DNA binding sites within REV-RE mutated)). Besides, the “reduction of repression in mutant vs WT Bmal1 constructs” value in test [13] (pRORE, dRORE or p/dRORE mutants vs WT, ***P < 0.001 by Student's t test) is reported as “more than half”.

B6: the Kd in test [1] was 490 nM; in test [14], 2400 nM.
